Several values for one entry are separate records, joined by “and”; a condition that tells them apart may be missing. Equal entries are not always repeated.
Biological target: Mab Select SuRe Ligand
Assay: SPR (Biacore T200), SuRe ligand on CM5 chip, antibody 5 ug/mL

| Binder | SuRe binding (RU) |
| --- | --- |
| TR01H084-E2702GsKsc/L0011-k0 (antibody, human IgG4 S228P, kappa, N297A) heavy: QVQLVESGGGVVQPGGSLRLSCAASGFTFSNAWMHWVRQAPGKGLEWVAQIKDKSQNYATYYAESVKGRFTISRADSKNSIYLQMNSLKTEDTAVYYCRYVHYAAGYGVDIWGQGTTVTVSSASTKGPSVFPLAPCSRSTSESTAALGCLVKDYFPEPVTVSWNSGALTSGVHTFPAVLQSSGLYSLSSVVTVPSSSLGTKTYTCNVDHKPSNTKVDKRVESKYGPPCPPCPAPEFRGGPKVFLFPPKPKDTLMISRTPEVTCVVVDVSQEDPEVQFNWYVDGVEVHNAKTKPREEQFASTYRVVSVLTVLHQDWLNGKEYKCKVSNKGLPSSIEKTISKAKGQPREPQVYTLPPSQKEMTKNQVSLTCLVKGFYPSDIAVEWESNGQPENNYKTTPPVLDSDGSFFLYSKLTVDKSRWQEGNVFSCSVMHEALHNRYTQKSLSLSP light: DIVMTQSPLSLPVTPGEPASISCRSSQPLVHSNRNTYLHWYQQKPGQAPRLLIYKVSNRFSGVPDRFSGSGSGTDFTLKISRVEAEDVGVYYCGQGTQVPYTFGQGTKLEIKRTVAAPSVFIFPPSDEQLKSGTASVVCLLNNFYPREAKVQWKVDNALQSGNSQESVTEQDSKDSTYSLSSTLTLSKADYEKHKVYACEVTHQGLSSPVTKSFNRGEC | 5070 RU |
| TR01H110-E2702GsKsc/L0011-k0 (antibody, human IgG4 S228P, kappa, N297A) heavy: QVQLVESGGGVVQPGRSLKLSCAASGFTFSNAWMHWVRQAPGKGLEWVAQIKDKSQNYATYYAESVKGRFTISRDDSKNSLYLQMNSLKTEDTAVYYCRYVHYAAGYGVDAWGQGTTVTVSSASTKGPSVFPLAPCSRSTSESTAALGCLVKDYFPEPVTVSWNSGALTSGVHTFPAVLQSSGLYSLSSVVTVPSSSLGTKTYTCNVDHKPSNTKVDKRVESKYGPPCPPCPAPEFRGGPKVFLFPPKPKDTLMISRTPEVTCVVVDVSQEDPEVQFNWYVDGVEVHNAKTKPREEQFASTYRVVSVLTVLHQDWLNGKEYKCKVSNKGLPSSIEKTISKAKGQPREPQVYTLPPSQKEMTKNQVSLTCLVKGFYPSDIAVEWESNGQPENNYKTTPPVLDSDGSFFLYSKLTVDKSRWQEGNVFSCSVMHEALHNRYTQKSLSLSP light: DIVMTQSPLSLPVTPGEPASISCRSSQPLVHSNRNTYLHWYQQKPGQAPRLLIYKVSNRFSGVPDRFSGSGSGTDFTLKISRVEAEDVGVYYCGQGTQVPYTFGQGTKLEIKRTVAAPSVFIFPPSDEQLKSGTASVVCLLNNFYPREAKVQWKVDNALQSGNSQESVTEQDSKDSTYSLSSTLTLSKADYEKHKVYACEVTHQGLSSPVTKSFNRGEC | 29.5 RU |
| TR01H091-E2702GsKsc/L0011-k0 (antibody, human IgG4 S228P, kappa, N297A) heavy: QVQLVESGGGLVQPGRSLKLSCAASGFTFSNAWMHWVRQAPGKGLEWVAQIKDKSQNYATYYAESVKGRFTISRDDSKNSLYLQMNSLKTEDTAVYYCRYVHYAAGYGVDAWGQGTTVTVSSASTKGPSVFPLAPCSRSTSESTAALGCLVKDYFPEPVTVSWNSGALTSGVHTFPAVLQSSGLYSLSSVVTVPSSSLGTKTYTCNVDHKPSNTKVDKRVESKYGPPCPPCPAPEFRGGPKVFLFPPKPKDTLMISRTPEVTCVVVDVSQEDPEVQFNWYVDGVEVHNAKTKPREEQFASTYRVVSVLTVLHQDWLNGKEYKCKVSNKGLPSSIEKTISKAKGQPREPQVYTLPPSQKEMTKNQVSLTCLVKGFYPSDIAVEWESNGQPENNYKTTPPVLDSDGSFFLYSKLTVDKSRWQEGNVFSCSVMHEALHNRYTQKSLSLSP light: DIVMTQSPLSLPVTPGEPASISCRSSQPLVHSNRNTYLHWYQQKPGQAPRLLIYKVSNRFSGVPDRFSGSGSGTDFTLKISRVEAEDVGVYYCGQGTQVPYTFGQGTKLEIKRTVAAPSVFIFPPSDEQLKSGTASVVCLLNNFYPREAKVQWKVDNALQSGNSQESVTEQDSKDSTYSLSSTLTLSKADYEKHKVYACEVTHQGLSSPVTKSFNRGEC | 27.5 RU and 15 RU |
| TR01H092-E2702GsKsc/L0011-k0 (antibody, human IgG4 S228P, kappa, N297A, V domains shown) VH: QVQLVESGGGLVQPGRSLRLSCAASGFTFSNAWMHWVRQAPGKGLEWVAQIKDKSQNYATYYAESVAGRFTISRDDSKNSLYLQMNSLKTEDTAVYYCRYVHYAAGYGVDAWGQGTTVTVSS VL: DIVMTQSPLSLPVTPGEPASISCRSSQPLVHSNRNTYLHWYQQKPGQAPRLLIYKVSNRFSGVPDRFSGSGSGTDFTLKISRVEAEDVGVYYCGQGTQVPYTFGQGTKLEIKR | 1160 RU |
| TR01H094-E2702GsKsc/L0011-k0 (antibody, human IgG4 S228P, kappa, N297A, V domains shown) VH: QVQLVESGGGLVQPGRSLRLSCAASGFTFSNAWMHWVRQAPGKGLEWVAQIKDKSQNYATYYAESVSGRFTISRDDSKNSLYLQMNSLKTEDTAVYYCRYVHYAAGYGVDAWGQGTTVTVSS VL: DIVMTQSPLSLPVTPGEPASISCRSSQPLVHSNRNTYLHWYQQKPGQAPRLLIYKVSNRFSGVPDRFSGSGSGTDFTLKISRVEAEDVGVYYCGQGTQVPYTFGQGTKLEIKR | 2350 RU |
| TR01H100-E2702GsKsc/L0011-k0 (antibody, human IgG4 S228P, kappa, N297A, V domains shown) VH: QVQLVESGGGLVQPGRSLRLSCAASGFTFSNAWMHWVRQAPGKGLEWVAQIKDKSQNYASYYAESVKGRFTISRDDSKNSLYLQMNSLKTEDTAVYYCRYVHYAAGYGVDAWGQGTTVTVSS VL: DIVMTQSPLSLPVTPGEPASISCRSSQPLVHSNRNTYLHWYQQKPGQAPRLLIYKVSNRFSGVPDRFSGSGSGTDFTLKISRVEAEDVGVYYCGQGTQVPYTFGQGTKLEIKR | 383 RU |
| TR01H113-E2702GsKsc/L0011-k0 (antibody, human IgG4 S228P, kappa, N297A, V domains shown) VH: QVQLVESGGGVVQPGGSLRLSCAASGFTFSNAWMHWVRQAPGKGLEWVAQIKDKSQNYATYVAESVKGRFTISRADSKNSIYLQMNSLKTEDTAVYYCRYVHYAAGYGVDIWGQGTTVTVSS VL: DIVMTQSPLSLPVTPGEPASISCRSSQPLVHSNRNTYLHWYQQKPGQAPRLLIYKVSNRFSGVPDRFSGSGSGTDFTLKISRVEAEDVGVYYCGQGTQVPYTFGQGTKLEIKR | 7 RU |

The remaining lines, values ahead:

| SuRe binding (RU) | Binder |
| --- | --- |
| 3610 RU | TR01H090-E2702GsKsc/L0011-k0 (antibody, human IgG4 S228P, kappa, N297A) heavy: QVQLVESGGGLVQPGGSLRLSCAASGFTFSNAWMHWVRQAPGKGLEWVAQIKDKSQNYATYYAESVKGRFTISRDDSKNSLYLQMNSLKTEDTAVYYCRYVHYAAGYGVDAWGQGTTVTVSSASTKGPSVFPLAPCSRSTSESTAALGCLVKDYFPEPVTVSWNSGALTSGVHTFPAVLQSSGLYSLSSVVTVPSSSLGTKTYTCNVDHKPSNTKVDKRVESKYGPPCPPCPAPEFRGGPKVFLFPPKPKDTLMISRTPEVTCVVVDVSQEDPEVQFNWYVDGVEVHNAKTKPREEQFASTYRVVSVLTVLHQDWLNGKEYKCKVSNKGLPSSIEKTISKAKGQPREPQVYTLPPSQKEMTKNQVSLTCLVKGFYPSDIAVEWESNGQPENNYKTTPPVLDSDGSFFLYSKLTVDKSRWQEGNVFSCSVMHEALHNRYTQKSLSLSP light: DIVMTQSPLSLPVTPGEPASISCRSSQPLVHSNRNTYLHWYQQKPGQAPRLLIYKVSNRFSGVPDRFSGSGSGTDFTLKISRVEAEDVGVYYCGQGTQVPYTFGQGTKLEIKRTVAAPSVFIFPPSDEQLKSGTASVVCLLNNFYPREAKVQWKVDNALQSGNSQESVTEQDSKDSTYSLSSTLTLSKADYEKHKVYACEVTHQGLSSPVTKSFNRGEC |
| 50.7 RU | TR01H111-E2702GsKsc/L0011-k0 (antibody, human IgG4 S228P, kappa, N297A) heavy: QVQLVESGGGVVQPGGSLKLSCAASGFTFSNAWMHWVRQAPGKGLEWVAQIKDKSQNYATYYAESVKGRFTISRADSKNSIYLQMNSLKTEDTAVYYCRYVHYAAGYGVDIWGQGTTVTVSSASTKGPSVFPLAPCSRSTSESTAALGCLVKDYFPEPVTVSWNSGALTSGVHTFPAVLQSSGLYSLSSVVTVPSSSLGTKTYTCNVDHKPSNTKVDKRVESKYGPPCPPCPAPEFRGGPKVFLFPPKPKDTLMISRTPEVTCVVVDVSQEDPEVQFNWYVDGVEVHNAKTKPREEQFASTYRVVSVLTVLHQDWLNGKEYKCKVSNKGLPSSIEKTISKAKGQPREPQVYTLPPSQKEMTKNQVSLTCLVKGFYPSDIAVEWESNGQPENNYKTTPPVLDSDGSFFLYSKLTVDKSRWQEGNVFSCSVMHEALHNRYTQKSLSLSP light: DIVMTQSPLSLPVTPGEPASISCRSSQPLVHSNRNTYLHWYQQKPGQAPRLLIYKVSNRFSGVPDRFSGSGSGTDFTLKISRVEAEDVGVYYCGQGTQVPYTFGQGTKLEIKRTVAAPSVFIFPPSDEQLKSGTASVVCLLNNFYPREAKVQWKVDNALQSGNSQESVTEQDSKDSTYSLSSTLTLSKADYEKHKVYACEVTHQGLSSPVTKSFNRGEC |
| 4470 RU | TR01H082-E2702GsKsc/L0011-k0 (antibody, human IgG4 S228P, kappa, N297A) heavy: QVQLVESGGGLVQPGRSLRLSCAASGFTFSNAWMHWVRQAPGKGLEWVAQIKDKSQNYATYYAESVKGRFTISRDDSKNSLYLQMNSLKTEDTAVYYCRYVHYAAGYGVDAWGQGTTVTVSSASTKGPSVFPLAPCSRSTSESTAALGCLVKDYFPEPVTVSWNSGALTSGVHTFPAVLQSSGLYSLSSVVTVPSSSLGTKTYTCNVDHKPSNTKVDKRVESKYGPPCPPCPAPEFRGGPKVFLFPPKPKDTLMISRTPEVTCVVVDVSQEDPEVQFNWYVDGVEVHNAKTKPREEQFASTYRVVSVLTVLHQDWLNGKEYKCKVSNKGLPSSIEKTISKAKGQPREPQVYTLPPSQKEMTKNQVSLTCLVKGFYPSDIAVEWESNGQPENNYKTTPPVLDSDGSFFLYSKLTVDKSRWQEGNVFSCSVMHEALHNRYTQKSLSLSP light: DIVMTQSPLSLPVTPGEPASISCRSSQPLVHSNRNTYLHWYQQKPGQAPRLLIYKVSNRFSGVPDRFSGSGSGTDFTLKISRVEAEDVGVYYCGQGTQVPYTFGQGTKLEIKRTVAAPSVFIFPPSDEQLKSGTASVVCLLNNFYPREAKVQWKVDNALQSGNSQESVTEQDSKDSTYSLSSTLTLSKADYEKHKVYACEVTHQGLSSPVTKSFNRGEC |
| 2460 RU | TR01H093-E2702GsKsc/L0011-k0 (antibody, human IgG4 S228P, kappa, N297A, V domains shown) VH: QVQLVESGGGLVQPGRSLRLSCAASGFTFSNAWMHWVRQAPGKGLEWVAQIKDKSQNYATYYAESVQGRFTISRDDSKNSLYLQMNSLKTEDTAVYYCRYVHYAAGYGVDAWGQGTTVTVSS VL: DIVMTQSPLSLPVTPGEPASISCRSSQPLVHSNRNTYLHWYQQKPGQAPRLLIYKVSNRFSGVPDRFSGSGSGTDFTLKISRVEAEDVGVYYCGQGTQVPYTFGQGTKLEIKR |
| 8.8 RU | TR01H112-E2702GsKsc/L0011-k0 (antibody, human IgG4 S228P, kappa, N297A, V domains shown) VH: QVQLVESGGGVVQPGGSLRLSCAASGFTFSNAWMHWVRQAPGKGLEWVAQIKDKSQNYAQYYAESVKGRFTISRADSKNSIYLQMNSLKTEDTAVYYCRYVHYAAGYGVDIWGQGTTVTVSS VL: DIVMTQSPLSLPVTPGEPASISCRSSQPLVHSNRNTYLHWYQQKPGQAPRLLIYKVSNRFSGVPDRFSGSGSGTDFTLKISRVEAEDVGVYYCGQGTQVPYTFGQGTKLEIKR |
| 1490 RU | TR01H114-E2702GsKsc/L0011-k0 (antibody, human IgG4 S228P, kappa, N297A, V domains shown) VH: QVQLVESGGGVVQPGGSLRLSCAASGFTFSNAWMHWVRQAPGKGLEWVAQIKDKSQNYASYYAESVKGRFTISRADSKNSIYLQMNSLKTEDTAVYYCRYVHYAAGYGVDIWGQGTTVTVSS VL: DIVMTQSPLSLPVTPGEPASISCRSSQPLVHSNRNTYLHWYQQKPGQAPRLLIYKVSNRFSGVPDRFSGSGSGTDFTLKISRVEAEDVGVYYCGQGTQVPYTFGQGTKLEIKR |

— patent US20210388110A1
